In patent US5416015A, “Isolated genes encoding peptidyl prolyl-cis.trans-isomerase and plasmids comprising said genes” (Tonen Corporation, priority 1989, dated 1995):

Assay: Specific activity of enzyme (PPIase activity measurement)
Type: biochemical
Details: recombinant E. coli PPIase-β, FIG. 26
From the text: As a result, the specific activity of the natural enzyme was.51,480 arbitrary units/[…] 1 unit, while that of the recombinant enzyme was 52,876 arbitrary units/A280 1 unit. Thus, no distinction could be made on specific activity (FIG. 26).

B1: recombinant enzyme: E. coli PPIase-β produced by E. coli HB101 transformed with expression plasmid pATtrp EPPIb (protein, UniProt P23869 1-164, looked up)
Peptidyl-prolyl cis-trans …: MVTFHTNHGDIVIKTFDDKAPETVKNFLDYCREGFYNNTIFHRVINGFMIQGGGFEPGMKQKATKEPIKNEANNGLKNTRGTLAMARTQAPHSATAQFFINVVDNDFLNFSGESLQGWGYCVFAEVVDGMDVVDKIKGVATGRSGMHQDVPKEDVIIESVTVSE
specific activity: 52,876 arbitrary units/A280 1 unit
